# Assay results: the domain aggregation screens of Martell et al. (2025)
# Experiment: soluble fraction after stress (log2 fold change); higher = more stays soluble; pooled small domains, quantitative proteomics
# Conditions: stress: pH 4
# Outline: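 Following acid stress at pH 4, the amount of each small protein domain still soluble was measured in pooled custom libraries by high-throughput quantitative proteomics. Its fold change, on a log2 scale, is higher when more of the domain stayed soluble. This fold change is taken as a measure of aggregation propensity.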
row,Sequence,soluble fraction (log2)
1,HMTKGDRIKARREELGLTQTDLAEAISSTKQNIYKYENNIISNIPSDKVEAIAEVLKISPAYLMGWGDE,-0.594
2,HMQVSDVTTIRALVEEVLSSSPQQLAQYRAGKLSLKGYFVGQVMKKGKGQLNAAAVNNLLDEIL,0.36
3,HMEVEIPSREALLGLVQKHLKPVSFDEFVSHFKLGDERQQVGIKRRLRAMERDGQLVYTKANSYGLPDRM,-0.197
4,HMRLPVELTDREVEVLRLLAQAMSNGEIARELYIGEATVKTHVSNVLQKLGARDRVAAVVWAHRYGL,-1.16
5,HMVQMNMLELQEEMQRDRSWIIKHLFQDEYFRRKIAKFSQFPINDSGKYLFHRKSMLKFLNDYAEEIVER,-1.46
6,HMNPLLSAYLAEVERGLQGLTAGRRRLVLRELEAHLLDEAEARGLLTEEDMRALLMEKEPPERLAQEIAQ,-0.925
7,HMTEALEFTVEDLRMAGLVNSSFSRRRRELFSEKLGIGYGNGKSLLKKLNGYGITREEFNGAIQSLSD,-1.3
8,HMPGEIKKIPINSISYQDLKQHPYFDAYLAKQVIKYRETKGRIENIEQFREATRAYQSLIEKVTPYLDFE,-0.268
9,HMPHFGVVLQMDDWKTLRDRLEARDDIDWVMKPNLRFEGQPGEQATLFIRDPSGNALEFKGFADLSQVF,-1.64
10,HMNDIVKIYTTHRIINIEGLAKNEPIMLYTINGTLIDKSVSSNGSAQLHVKGIGVYLVKWANNIVKVIVPN,0.199
11,HMQRFIHITVSDVHQATRLLEEEMQLTNYSVAENNAIKIFEFTYEPQEINHLFGKNGIEVSSLFIGS,-0.345
12,HMKQNRNLPVQIINNGKIIESVMTEFNLDIDWVYSEAKRLGYKNIKDIFYAGINRDGQFFIVPLF,-1.35
13,HMLRVGASVTANGKYWYDSYGSKPFGTANNLSTTVTRIVPGNPYPIHIGSYGWLQESQIQIT,0.204
14,HMNSLQNNLKQARTRVGLTQGVLASQAGISRQAYSTLESGSANPSTEVALRLAQALQERVELLFYLPER,-0.609
15,HMVGEYTVKKGDTLWKIAGQTLGSPLRYAEIYELNKDVIEEAALGRGKKNSSNGHWIFQGTVLKIPA,-0.255
16,HMISAVDLMAARRKIEAGITNLQPGQAFTLPNKVGWVKRMTGGSYFIQGNGGYTASVRTISEAIQAAAMLL,-0.0224
17,HMNTGTTISYSDFRDRVASGTVKEVQISDDRITGVLKNDETFNTVPVGNDSGLTKLLDDNGVTYSGTP,0.212
18,HMELEWENYSLAGEIKTTVMLYQNRRNGLPEEAKQKADALMKQLKQAVIENDAQKVEKIDDALTALLFE,-0.249
19,HMPVNEEFKRLIDKIKYEFSINQAQISERLGVKSTYLSDMINGRVPYNESMQKKIHEVFHIG,0.114
20,HMKFLYQQVYQDIKDKITSAQYQFGDLLPSEREIGEEYHVDRTTVRKAFSLLVDEGLVEKRAGKGSVVIS,-0.52
21,HMEPTLVVARDKDAKSPLVAKLMKELGVDAAPRVIVDDSVIGGAKLSHNHTEIDATYKTALINLYQAIT,-0.0179
22,HMDRFRYYITEDSVQRGTYPYVDETTLKRFTSQLHKYEQGMISAYGYLEYSKPLTAEQIKDYTLMPSP,-0.485
23,HMVDPELFIWVESSKEPVYHLAYKIELFVHSTDPQDDVPVHRWQVFVDAHNGNILDKFDEVR,-1.65
24,HMQAMDYEGFKKEILKMSDIDLSLYKEKQMKRRIDSLIRKNGYEHYEDYVQALKQDSGLYNEFINYLTI,-1.33
25,HMTYKPAADFKPSDTSSLKEGMKVEHPKFGFGTVMKMEEVGTERKARINFADFGEKTLLLSFAKLKIHEN,-0.361
26,HMLPGWMETKFTANVSENTKNRTLEEHVLKMLNNKESAAEFIIFLHEKMMSVSGQVFQLDSR,-0.0998

row,Sequence,soluble fraction (log2)
1,HMQNYLEFIGNELKALTSIPSPSGYTKDVAAYLMKTLSDMGYEPQLSNKGNVFVTIGGEGNPLVLAAHVD,-0.436
2,HMEDESSIERYLGSGAIKGIGPSLAARIVKKFGKDTFRIIEQEPERLAEIKGISERKAMEISTLMEEK,0.0126
3,HMSVSATQMDAFVRQLRARLSSADGLDDAARLVRQDLEPFLGRFSDETERDFAAAIEQVRGSIRPVEI,-1.73
4,HMRSFGTVAQARGRWKAFYVGPDKRRHTPGVTFSNPIRAQGWLAQELTLIELGQWTPPAQRREKAEVAS,-0.43
5,HMTSPKSRIVSALLASPSRPEELAMRLGEDILTLMRTLTDFEASGIIQRLPDGRYTPTREYHLGLVDK,-0.534
6,HMGIFAQTTKWRDIYTVKKKDTIFGIANKYGLSLPELMEANPEMKQEGYMLQKGTTLFIPFASD,-0.0354
7,HMSSVRDNGDLELVPGDRIRHDDYGEGRVTAVTGVGSKRIAHAVFDSVGERKLLIKLSPIEKI,0.235
8,HMFIEPPSLEELERRLRGRGTETDDVVDMRMRTALVELSQKMEYDYRLVNDDLDEATRQLVAYVNEIAEQ,-0.679
9,HMFPDLTEDEQLIVDVLQRTGDLQINSLIVEANIPVNKMSEILFELEMKGVIRTLAGGVYQLL,-1.84
10,HMYEDIDSAYRILEINSTVSNQEIKNAYRRMAKKYHPDKVAHLGVEHQKGAEEKFKKVQEAYILIKKRRG,-0.146
11,HMETLKLRDSGKEVQSLQELLQRQGLSAPMNGIFDEATKSSVIAFQKANGLDADGIVGYKSWETLFTAG,-0.349
12,HMDALTLSIDAQGALYWNGQPVSRELAAQRFVEAAAQRPQPELHLRADQNVAYRHVAMTLADASRAGLTR,-0.632
13,HMSKNIRQQFLDVLPKTFDRNQYLETAKKLSINAKTAEGYIKKFVEANLLDHPKHNHYINLKKVEEVETK,-0.0789
14,HMEKVLPFEFERKFKTNHTAWDFFSNQAPPSYRKTVIHWILSAKQEITRISRLEKLIAASEQQKRI,-0.31
15,HMSEQGVITAKFASIVGNQNIQLVMFPDSVYLKGQVSSEEEKKRAETVASSLIQDRKIVNLIEFE,-0.638
16,HMNTELSPKVWDVVQEFILYRKEIKAPMTEHAVKLLIGQLQKLSSDPDEQIEILRQSIVNGWKGIFSLK,-0.992
17,HMATKVSSGATVRDVADLLGLSSAELIKKLMMMGEMATLTQTLTDESIKSIADEYDRKIEIVSAAE,-1.22
18,HMEPLIRTLEEQIAEKIKNYRKGTRVYDAEHVDRWISQLPEEERMVVLTETNRLLEQNYVDQAKLME,-0.803
19,HMGAVGISQKVTSLETAVLGKNFAKDPLIDRVARLEQTVLPKQAEANASLSLPERVSKLLEKVPIAAG,0.136
20,HMNRPQDLGEPYDGQFREHPEAWAFYAAQSPSYRRSASWWVLGAKQEVTRQRRLAALIDASAQGTRIPALT,-0.0491
21,HMEILTLEELKRLMAKAKLKQNQISGHAGVSKQQISMILAGKRNITKDVSDNLKANLAEYFP,0.107
22,HMADTPQAYIRQMVQEAGADGIMLSTITDRLRARFKDFKVRDLGYAQMRQYMASTGTYDLEKSGRNFRVHL,0.181
23,HMVANLPFNYKVYAKKGKLYVVISYKDSNGKYKKKWIRTGLDEGTKKKEVNTVADQIAAEYYSSMRLE,0.0398
24,HMDRSIGDIIAELRDLSAEQVERVLAHQRETGVRFGEAAVALGYASKEDVLFALSQQFHYPYAPEE,-0.946
25,HMDEMEFQKYVDQNLKQKGISLTAEAKAELLLRLGGDTMLLHSAIEKLDLYGEKNLNLNDIKHLVSLNSDV,0.0232
26,HMLEQEDMYGYQMIETLRERSEHSFDLKAGTLYPLLHALEQKGLITARDEASAAGRPRRYYHLTDAG,-1.05

row,Sequence,soluble fraction (log2)
1,HMSDHSSLAGKEGVAVTPLRPAGTAEIDGKRMDVVTMGDYIKAGDHIKVVKVEGNRIIVAKN,-0.0102
2,HMSGYAIVNNQPGRTLNLRNSPSQSNNIIGQIPSGTRLQLISRGETWSEVIFQTTRGFVMSSFLRFET,-0.17
3,HMQLDDDQKEELILKLIDSLDTTKKGAPLTELAREAAKSNIGESELEEITTSLLDKGLVYEPTIGKMKR,0.0111
4,HMSRQAPIGHRIRGRRKDIGMTQNALAKAAGISPSYLNLIEHNRRSIGGGLLMRIAAILDIHPHTL,0.0837
5,HMKIIDDIQEFAGVTKTQNTFFHIFNHLHQNGKQLILTSDRAPVMLQGMEERLLTRFKWGLVAELE,0.158
6,HMALPRYFFRTRENGAVLFKTPVNNHQNRLEMHQIAAINIRNETVKPLGDTVLTDEETELIADWMRERKTV,-0.596
7,HMVAQQINDFRSERDASTGTLKRPLFDTLRDVISSRAQAYVSATGKPVTVEDLDRIYQAVEAEAKQAL,-0.349
8,HMGRGSEDEQMRGLAVILAEQKQIMQTLGVENEVVKPEQYINTLKRMAELNGFKDTDQFFSIPQ,-0.587
9,HMSNPADDVVDLLRQLRLPHMRAAAPELLATAKAQRWDPAEAIRALLTEELAGRQASSINARRK,-0.226
10,HMRMTKPLPFDLAAFRNEFGFTKSIIMQEVGVSRHIYDNVERTNATPPEFYDDFVSFFQRHGQ,-0.203
11,HMYFNTADLKADSIHYGSTEQSVIKILGEPEYRETFVDNNVSYELFSYKGNLLLSFVENSLVSL,-0.0269
12,HMKAFTKKELQDLVLNIFRASPTTNYNYKQLYKLIRGKDPEIKTLIIAVLLGLEKNGSILQMRPGKYKFS,-0.268
13,HMNELVEATITTQTGRLDKVLTTIFPQYSRSQIQQLLEQGNILVNETLQKGKYKVKAGDKISLTEPAIKE,≥ 0.43
14,HMAMTQNVDLAGRIVFNEKKEEVFNFGKHKGRSVAEVFEKEPSYYDWMLKGDFPAETKQVLTALRLRGLS,-0.64
15,HMQADEENPKYPVITDGVIQLEVLESIDKTEEWLVERLAKDGYNNVSEIFIAEYENGNLSIVT,-0.742
16,HMTELNNTQRAAVLLLALDEDSAAEVFKHLSAREVQEVSQEMAKLGNISHDQMRQVLDDFYDESEQF,-1.01
17,HMHHDQQQITAELARIARNGLPGLTADNAIISRLDALNLLINIHDDRGADATPLRGLLPAIADELLRLT,0.0087
18,HMGMKTSQKLARQREIVRLIRAQTIRTQAELADALRERAFPVSQPTLSKDIAELGLIKVPLPDSGYRYQLP,-0.105
19,HMKYTEEIFNILSRGGFISANSVSSTVKRYYDALEEDFTEYYDYYKGIGFYLEAGNGYYLFTR,-0.064
20,HMQANLPFSELLADVDRGLISDVTIKGDQVSGHYTDGRTFNTFIPPEADLVRRLTEKNVRIAAVPD,-0.00341
21,HMPSDTNLIGKTGIAYTTLRPGGTALIDDRKVDVVADSEYIEKDKKIKVIRVEGIKVVVTAVK,0.194
22,HMTIKNHIDEILKKEPFILENIKNGLINISALARQIEPQLSRKVGKKLNVNAIIMTIKRMEIDQLNK,0.0888
23,HMQQDVLKLKSGGNYKGEYINIESAYVLFKPEGGNATQRIKVNEIQMLKLADGTEVIFGGRVK,0.297
24,HMNSISDSELKALIKNNYLKFLKRIASDEEIEYHFNQIKNKTILLDELDSIFQNSQEYKDLVEHNNKIQN,-0.809
